Reference: paper PMC8143792, “Sec17/Sec18 can support membrane fusion without help from completion of SNARE zippering” (eLife, 2021)

T1: Qa (Vam3), full-length (Saccharomyces cerevisiae, UniProt Q12241 1-283)
T1 construct: Vam3, the vacuolar Qa-SNARE of Saccharomyces cerevisiae, full length with its transmembrane anchor; whether GST was removed is told only in the cited work; also called GST-Qa (Vam3); source: E. coli, purified
T1 sequence (looked up): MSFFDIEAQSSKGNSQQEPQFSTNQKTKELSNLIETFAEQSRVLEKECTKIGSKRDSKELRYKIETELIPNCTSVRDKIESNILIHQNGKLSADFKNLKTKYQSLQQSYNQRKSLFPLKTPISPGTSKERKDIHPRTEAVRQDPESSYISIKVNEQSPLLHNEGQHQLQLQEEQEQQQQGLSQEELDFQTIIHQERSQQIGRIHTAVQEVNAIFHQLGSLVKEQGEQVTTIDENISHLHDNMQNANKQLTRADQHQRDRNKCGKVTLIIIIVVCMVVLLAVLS

B1: sQa3Δ, soluble Qa (Vam3) with amino acyl residues 1–235 (domain or fragment, Saccharomyces cerevisiae, UniProt Q12241 1-235, looked up)
chain: MSFFDIEAQSSKGNSQQEPQFSTNQKTKELSNLIETFAEQSRVLEKECTKIGSKRDSKELRYKIETELIPNCTSVRDKIESNILIHQNGKLSADFKNLKTKYQSLQQSYNQRKSLFPLKTPISPGTSKERKDIHPRTEAVRQDPESSYISIKVNEQSPLLHNEGQHQLQLQEEQEQQQQGLSQEELDFQTIIHQERSQQIGRIHTAVQEVNAIFHQLGSLVKEQGEQVTTIDENI
notes: Vam3 of Saccharomyces cerevisiae, residues 1-235; lacks the regions C-terminal to the +3 layer of the SNARE domain; also called GST-sQa3Δ; GST-Qa (Vam3)3Δ; source: E. coli Rosetta2 (DE3)-pLysS, purified (glutathione agarose), GST tag removed by TEV protease
B2: his6-R (Nyv1), full-length R-SNARE with a 6his-tag on its N-terminus (natural protein, Saccharomyces cerevisiae, UniProt Q12255 1-253, looked up)
chain: MKRFNVSYVEVIKNGETISSCFQPFQKNENYGTITSANEQITPVIFHNLIMDMVLPKVVPIKGNKVTKMSMNLIDGFDCFYSTDDHDPKTVYVCFTLVDMPKILPIRILSGLQEYESNATNELLSSHVGQILDSFHEELVEYRNQTLNSSGNGQSSNGNGQNTISDIGDATEDQIKDVIQIMNDNIDKFLERQERVSLLVDKTSQLNSSSNKFRRKAVNIKEIMWWQKVKNITLLTFTIILFVSAAFMFFYLW
notes: Nyv1, the vacuolar R-SNARE of Saccharomyces cerevisiae, full length with its membrane anchor; construct as in the cited work (PMID:22174414); also called His-R (Nyv1); source: E. coli, purified; not shown: His6, N-terminal, kept
B3: sQb3Δ, soluble Qb (Vti1) with amino acyl residues 1–160 (domain or fragment, Saccharomyces cerevisiae, UniProt Q04338 1-160, looked up)
chain: MSSLLISYESDFKTTLEQAKASLAEAPSQPLSQRNTTLKHVEQQQDELFDLLDQMDVEVNNSIGDASERATYKAKLREWKKTIQSDIKRPLQSLVDSGDRDRLFGDLNASNIDDDQRQQLLSNHAILQKSGDRLKDASRIANETEGIGSQIMMDLRSQRE
notes: Vti1 of Saccharomyces cerevisiae, residues 1-160; lacks the regions C-terminal to the +3 layer of the SNARE domain; also called GST-sQb3Δ; GST-Qb (Vti1)3Δ; source: E. coli Rosetta2 (DE3)-pLysS, purified (glutathione agarose), GST tag removed by TEV protease
B4: Qb (Vti1), full-length (natural protein, Saccharomyces cerevisiae, UniProt Q04338 1-217, looked up)
chain: MSSLLISYESDFKTTLEQAKASLAEAPSQPLSQRNTTLKHVEQQQDELFDLLDQMDVEVNNSIGDASERATYKAKLREWKKTIQSDIKRPLQSLVDSGDRDRLFGDLNASNIDDDQRQQLLSNHAILQKSGDRLKDASRIANETEGIGSQIMMDLRSQRETLENARQTLFQADSYVDKSIKTLKTMTRRLVANKFISYAIIAVLILLILLVLFSKFK
notes: Vti1, the vacuolar Qb-SNARE of Saccharomyces cerevisiae, full length with its transmembrane anchor; whether GST was removed is told only in the cited work; also called GST-Qb (Vti1); source: E. coli, purified

What was measured:
[1] = target: B2; assay: pull-down; his6-R held on nickel-NTA agarose; 2.5 µM of each SNARE (R and three Q-SNAREs mixed), Buffer 151 (20 mM HEPES-NaOH, pH 7.4, 150 mM NaCl, 10% glycerol, 1% ß-OG, 20 mM imidazole), 4°C, 2 hr then 1 hr on beads; immunoblot; conditions: both partners purified
Qa (Vam3), full-length = target: T1, Qa (Vam3), full-length; assay: as above; conditions: both partners purified

Row | binding result [1] | binding result (Qa (Vam3), full-length) | Binder
1 | binds | – | B1
2 | – | binds | B2
3 | binds | – | B3
4 | binds | – | B4
